Reference: a protein production outcome set (Wang et al. 2014)

Test: label from the status in PepcDB records

Sequence	protein production
MNVYFLGGGNMAAAVAGGLVKQGGYRIYIANRGAEKRERLEKELGVETSATLPELHSDDVLILAVKPQDMEAACKNIRTNGALVLSVAAGLSVGTLSRYLGGTRRIVRVMPNTPGKIGLGVSGMYAEAEVSETDRRIADRIMKSVGLTVWLDDEEKMHGITGISGSGPAYVFYLLDALQNAAIRQGFDMAEARALSLATFKGAVALAEQTGEDFEKLQKNVTSKGGTTHEAVEAFRRHRVAEAISEGVCACVRRSQEMERQYQ	not failed
MLSQTLLEMTEQMIEVAEKGADRYQEGKNSNHSYDFFETIKPAVEENDELAARWAEGALELIKVRRPKYVHKEQIEAVKDNFLELVLQSYVHHIHKKRFKDITESVLYTLHAVKDEIAREDSRLEHHHHHH	not failed
MKPRNIAIACGVAGVAVSLAAATGIVYHKQIKSAASLKRLTGYADGYDLYAIDIAYDYDLNRIIAAGVRDDQAYIDAVVAQVLPGVPVHVQAPQFACSAFVAVDAEGRVRTGRNYDFKDDTSALLVRNHPRGGYASIGFAALNNLGDNTPLDSVAGRAAALMGPFGQLDGVNECGVSIAVLTLDSKPCDQDAQRPVINTSLAIRLVLDRAATTQEAVDLLSAYDMHAMAGRDYHFFINDAAGDARVVEWDPRDPDRAFKATPVRQVTNFYACYGDEVLPNQKNGELGHGKERAIAIADVLDAHVGAQDEAVAWKALRAAAQEPNPKDITSNTQWSVVFDNTEPAAAITLRRHWGDVDAFAL	failed
MDINNKARIHWACRRGMRELDISIMPFFEHEYDSLSDDEKRIFIRLLECDDPDLFNWLMNHGKPADAELEMMVRLIQTRNRERGPVAI	not failed
MKNIKIMRLVTGEDIIGNISESQGLITIKKAFVIIPMQATPGKPVQLVLSPWQPYTDDKEIVIDDSKVITITSPKDDIIKSYESHTSEIITPSGLITET	not failed
MDSVELCLPESFSLHYEEELLCRMSNKDRHIDSSCSSFIKTEPSSPASLTDSVNHHSPGGSSDASGSYSSTMNGHQNGLDSPPLYPSAPILGGSGPVRKLYDDCSSTIVEDPQTKCEYMLNSMPKRLCLVCGDIASGYHYGVASCEACKAFFKRTIQGNIEYSCPATNECEITKRRRKSCQACRFMKCLKVGMLKEGVRLDRVRGGRQKYKRRIDAENSPYLNPQLVQPAKKPYNKIVSHLLVAEPEKIYAMPDPTVPDSDIKALTTLCDLADRELVVIIGWAKHIPGFSTLSLADQMSLLQSAWMEILILGVVYRSLSFEDELVYADDYIMDEDQSKLAGLLDLNNAILQLVKKYKSMKLEKEEFVTLKAIALANSDSMHIEDVEAVQKLQDVLHEALQDYEAGQHMEDPRRAGKMLMTLPLLRQTSTKAVQHFYNIKLEGKVPMHKLFLEMLEAKV	not failed
MPIKVKYYGNVVFASDAVCGQAENYATLKAMKEVGNYTISIQTFENAENVYPEEFLAKPVADEHYLTTEDGSVGIKGHYLDIVKELIEKDKVDIIFAGGKLGSLAKLAELTRPYGIPTLEHHHHHH	failed
MDTKKIKTSCLINNYNYAAFLSEAVASTLRQTVKFDEIIIVDDASTDNSAEVIAKFAQQADIKYILKEKNQGQLSSFNEAFLNASGDIIFFLDADDAYEPEYLETVLNFYNRRSECDFVFCAYKKFGAVEGTFQDYEIDVDLGYSVIRTLCNGEWIGSITSTLSMRRDILRKVLPIPNTEDWRVRADDCLVWGASLVGAKKFYLSQPLVRYRIHQNNQFHNSKFVNTDKDYEYKRFWKRNSLFNYILQKNNLELPFLLAFTSLNELKTIPCPNNQDFISYLKIIFLFEKNVYWKIKGIFLLFNYLGKFLLNGKLQIR	failed
MSFASETKKELTNLEVKDCCAKAELSALIRMNGSLSFSNRKVVLDVQTENAAIARRIYTLLKKQYDVSVELLVRKKMRLKKNNVYIVRLIENAKPILEDLKILGDNFVIARNISEDLVKKRCCKRSYMRGAFLAGGSVNNPETSSYHLEIFSLYKEHNDSLCRLMNQFHLNSKTLERKKGYITYLKEAEKITEFLNVIGAHNSLLRFEDVRIVRDMRNSVNRLVNCETANLNKTIGASLRQVENIKLIDERIGLDALPEKLREIAQLRIDYQEVTLKELGEMVSSGKISKSGINHRLRKLDEIAEQLR	not failed
MGNKKEIAIVALTTGFVLTSVTPYGVGHAEETGQMQVEIQEDSFRTGDLTQPSKKAPENVVKDALKENTEHALSPKQVSAETGVDYKVLQKRGSYDGTTLVRMQQIYEGKEVYGHQLTAHVDKKGIIKSISGASAQNLTQEDLKKPINLSKEEAKQYIYKKYGNDTKFISEPEVKAVIFVDENHGQASNAYQVTFAATTPNYVSGTYLVNAHNGEMLKDMVQESSLKISEEYVESVKENKTSNFTSLTGTGKDDLGVTRTFGISKQTSGNYALADYTRGQGIETYDVNYRDITNEESYYPGILATSVSTTFNDPKAVSAHFLATKVYDFYKEKYKRNSFDNKGKKVVSVVHAWDSGGTNDPENWENAFSTNINNISMLLYGDPMVKAFDIAGHEFTHAVTSSESNLEFSGESGAINEALSDIMGTAIEKYINNGEFNWTIGEQTGSTFRNMKNPTAINFSEGLPYPDDYSKYNDLNGEDYGGVHFNSSIINKVAYLMAQGGTHNGVNVNGIGEDRMFDIFYYANTDELNMTSNFSELKLACLKVATNKYGANSIEVQAVQNAFDAAKITGTVKENEKTAENQAPELTVPFTITLRVGDTFDPMRNVKAVDKEDGDLTNKVKHKGDVDTSKPGTYIVEYMVVDSQGRNATATQTVIVEGNGETSDLEPKLTVPVGATIHVGDSFVPMAEVLAIDKEDGDLTSKIKVDGEVDTTKAGTYVLTYTVTDSKGHEVTAKQTVTVKVREEVKNDKPILKVPATTSITEGDQFDPLVGVSATDKEDGDLISKVAYEGTIDTTKAGTYEIIYSVRDSVGNEVNAIQKVLVKDKETSKANGLANKENKSNISNNSNSDKKEYTYKELPKTGVSTTNSAAIGILIIIVGTVLTLVRKFRKIQK	failed
MKKKQVLAVSSALMIGTTTALTGLPTPVMAQENTEVVQEAVVEENKTEQVPVEQKTENAEVQENITDKEQEETAENAETLKEESTKQETPATPEKEVVTEDKTVEASKNTEVKAGSIAIDETHFPDKVFREQIIAEFDKDGDSVLSVDEISKAQFLNLHGMKTISSLEGIQYLTNLQSLDVSTTSVSDLSPVKNSSLKRLDCRSSKVGSVDLTRYPNLEAFLCDNTSINSLDVSKNEKLNTLFADSTSISNLDVTNNPNLEQLSCSNTGLMELDVTHNPQLVTLDIGDTKVKTLDISKNPNLKQLSCYMTNIAELDVTKNTKLTRLFCHDTTIKKLDLSNNLELEMLRCGEIFEQGIRGLDISKNTKIKKLICDDLYWLNVGENKVLENNHAFVGNGYIDIKGNKIDLKKDVEQGIDISKVKVTANGTLDKDTGIITVDDVKKPVTYEYDCGTYKDGNVVLKVELSLNSQGEDNTAPTISANDVTLNVGDTFDPLANVTATDKEDGTITLTKDNIVANDVDTSKAGTYHVTYKVTDKNGASVKKTITVTVKQNTGDLNSAPIISANDVTLNVGDTFDPLANVTATDKEDGTIILTKDNIIANDVDTSKAGTYHVTFRVVDKNGAITEKTITVTVKEKATNKPVSPQQPQKPSKPTTPTKPSGQKNPVKTGDMTNVGLFTSMFAGSTGVLAVLFGKKRKRNKNN	failed
MNAYYYLAIAICAEVIATVSMKAVKGLSTPLPLALIIVGYGVAFWMLTLVVRTVPVGVAYAVWAGMGIVMVSIAALFLYGQKLDIPAMLGMALIVLGVVVIQLFSKTAGH	failed
NILSLLLHPRLGAVIQQMLEMPGHAWTVESLASIAHMSRASFAQLFRDVSGTTPLAVLTKLRLQIAAQMFSRETLPVVVIAESVGYASESSFHKAFVREFGCTPGEYRERVRQLA	not failed
MDTQTLNSDLRVFMHHIYEFEKGVRSMVLATLANDDIPYAEERLRSRQIPYFAQPTPNTERTNLFFGCKECMEAIRLFVSGRSLNSLTPEEDFIIGAMLGYDICRQCERYCRRKSNS	not failed
QEYILALADVPSSPYGVKIIELSQTTAKVSFNKPDSHGGVPIHHYQVDVKEVASEIWKIVRSHGVQTMVVLNNLEPNTTYEIRVAAVNGKGQGDYSKIEIFQTLPV	not failed
MNIKLYYVHDPMCSWCWGYKPTIEKLKQQLPGVIQFEYVVGGLAPDTNLPMPPEMQQKLEGIWKQIETQLGTKFNYDFWKLCTPVRSTYQSCRAVIAAGFQDSYEQMLEAIQHAYYLRAMPPHEEATHLQLAKEIGLNVQQFKNDMDGTLLEGVFQDQLSLAKSLGVNSYPSLVLQINDAYFPIEVDYLSTEPTLKLIRERIIENMSA	not failed
PAGVMIADAASGKLVLTNEQAKQILRYQFEDSLELKEYAPVTPFAAFRCDGQPYDPYEYPLPRSLLTGEVISQEEMLLRWEDNSHIFISVNSAPILDSQGQIAAAAIVFQDVTERKHLESELQQREQEFKMVAENAP	failed
MRVPLDEIDKKIIKILQNDGKAPLREISKITGLAESTIHERIRKLRESGVIKKFTAIIDPEALGYSMLAFILVKVKAGKYSEVASNLAKYPEIVEVYETTGDYDMVVKIRTKNSEELNNFLDLIGSIPGVEGTHTMIVLKTHKETTELPIK	not failed
TAALSGAANLGAPLSNDFCTISLSDKWRGWDEIEEKLRAAAISGFVVVLYNCWRDYERAVDVLREERADDVPAAIVNDSGRGEAGRNLDDETETITTLGELPEHDDKVGGMGSSIVVGTHETEV	failed
MKFISTSLLLMLLVSSLSPVQGVLEVYYTSLRCRCVQESSVFIPRRFIDRIQILPRGNGCPRKEIIVWKKNKSIVCVDPQAEWIQRMMEVLRKRSSSTLPVPVFKRKIP	failed
MELTELLDIGRQERSQQKPVQIRCCTAAGCLSANSQAVQQQLEQAVKAEGLEGEVQVSGVGCMRLCCQGPLVEVEGSGEEKTKQRLYEKVTPEDASAIIGAL	failed
MQISDIEVFAAIASSRSLSEAARRLGLSPMAISRRLAALENDLGVRLFHRTTRSVSLTPEGEVFLPHAKTILEASEAARTTLKADAGSASGVLRVTAPSVFGQTVIMPLLPALMLENPALSIDLTLSDSIVDIAGLGIDVAIRIATIRDSALVARSLAPNPRVVCVSPDYLARHGKPTLLEELRHHPCIALHAMPWWPFTRNGEPITIRAQGPFSANSVEAVRTACKQGMGLAMLTYWDVRQEINEGSLQQVDFEDAMPEQLSVTAVLPTRQRVPHRVRLFIDRLEAALKSKAGAAGVTL	failed
MSEMSPKEFKHILVGVDDSDDAQLAFRYAINRAKSDGAKLTIVSILEQDNMNVYEAMSKDFVHGQRKDLEEHVQQYQKLARDFGVTDVNAVVDEGDPGETIVKTVIPALKPDLLVIGSVAKHGVRKYFGSQAAYMAKHAPISVLVIR	failed
IMAKTAKVAVSQIVEHPALDATRQGLLDGLKAKGYEEGKNLEFDYKTAQGNPAIAVQIARQFVGENPDVLVGIATPTAQALVSATKTIPIVFTAVTDPVGAKLVKQLEQPGKNVTGLSDLSPVEQHVELIKEILPNVKSIGVVYNPGEANAVSLMELLKLSAAKHGIKLVEATALKSADVQSATQAIAEKSDVIYALIDNTVASAIEGMIVAANQAKTPVFGAATSYVERGAIASLGFDYYQIGVQTADYVAAILEGKEPGSLDVQVAKGSDLVINKTAAEQLGITIPEAVLARATSTK	not failed
MSNEHKASIDGGQWAQCVRERGWLWDVAQGVEVQSAPTLILAHGAGAPMDSGFMNDIAVRLAGHGVNVLRFEFPYMAQRRLDGGKRPPNPAPRLLECWREVHALVRPYVTGVLALGGKSMGGRMASLLADELQADALVCLGYPFYAAGKPEKPRVAHLADLSVPSLIVQGERDALGNRQAVEAYTLAPGIELYWLTAADHDLKPLKASGFSHEQHLESAALKVAAFLKALS	failed
